For the assay, the target named is HIV-1 capsid protein (CA), wild type (HIV-1 (NL4-3 / R9 clones)).

The substance owl-monkey TRIMCyp (natural protein) yielded a TRIMCyp restriction assay: infectivity of control pseudoviruses with pure CA^WT cores in TZM-bl cells expressing TRIMCyp, 48 h (fold reduction in infection) of 10.

The record behind these values is publication PMC10832047.
